Data on five molecules can be found in patent publication US20130251640A1 (METHODIST HOSPITAL SYSTEM, published 2013).

What all share (test): cell-based or functional assay
For test [1], the target named is Cathepsin B (purchased from Calbiochem, EMD Bioscience).
Test [2] deals with T1, Cathepsin E (purchased from Calbiochem, EMD Bioscience).
T1 sequence (P14091 whole entry, species assumed, looked up): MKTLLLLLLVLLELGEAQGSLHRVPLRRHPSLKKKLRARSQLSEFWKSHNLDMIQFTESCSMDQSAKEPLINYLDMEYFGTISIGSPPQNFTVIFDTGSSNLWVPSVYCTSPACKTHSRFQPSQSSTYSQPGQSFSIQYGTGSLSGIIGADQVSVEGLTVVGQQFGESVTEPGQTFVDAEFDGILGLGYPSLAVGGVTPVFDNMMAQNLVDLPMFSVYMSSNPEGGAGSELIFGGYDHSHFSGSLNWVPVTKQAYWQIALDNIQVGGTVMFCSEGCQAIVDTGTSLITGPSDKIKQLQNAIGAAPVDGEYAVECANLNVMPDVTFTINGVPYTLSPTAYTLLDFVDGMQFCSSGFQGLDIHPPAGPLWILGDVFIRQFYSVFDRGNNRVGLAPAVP

In test [3] the target is Cathepsin S (purchased from Calbiochem, EMD Bioscience).

Non-standard residues stand in square brackets, D forms with d. *: point of attachment. Dnp = O=[N+]([O-])c1ccc(*)c([N+](=O)[O-])c1; Mca = COc1ccc2c(CC(=O)*)cc(=O)oc2c1 Some results are limits rather than exact numbers.

B1: substrate e, Mca-Ala-Gly-Phe-Ser-Leu**Pro-Ala-Lys(Dnp)-D-Arg-CONH2 (peptide)
peptide: Mca-AGFSLPAK(Dnp)[dR]-NH2
SMILES: COc1ccc2c(CC(=O)N[C@@H](C)C(=O)NCC(=O)N[C@@H](Cc3ccccc3)C(=O)N[C@@H](CO)C(=O)N[C@@H](CC(C)C)C(=O)N3CCC[C@H]3C(=O)N[C@@H](C)C(=O)N[C@@H](CCCCNc3ccc([N+](=O)[O-])cc3[N+](=O)[O-])C(=O)N[C@H](CCCNC(=N)N)C(N)=O)cc(=O)oc2c1
For the molecule B1, the “fluorescence signal increase relative to that observed with Cath E, 90 minutes” value in test [1] and in test [3] was under 15% in each case. In addition, in test [2], the “net fluorescence signal ratio (Cath E/Cath D) at 1 minute” value came out at 265 fold.

B2: substrate c, Mca-Gly-Pro-Ile-Leu-Phe**Phe-Arg-Leu-Lys(Dnp)-DArg-CONH2 (peptide)
peptide: Mca-GPILFFRLK(Dnp)[dR]-NH2
SMILES: CC[C@H](C)[C@H](NC(=O)[C@@H]1CCCN1C(=O)CNC(=O)Cc1cc(=O)oc2cc(OC)ccc12)C(=O)N[C@@H](CC(C)C)C(=O)N[C@@H](Cc1ccccc1)C(=O)N[C@@H](Cc1ccccc1)C(=O)N[C@@H](CCCNC(=N)N)C(=O)N[C@@H](CC(C)C)C(=O)N[C@@H](CCCCNc1ccc([N+](=O)[O-])cc1[N+](=O)[O-])C(=O)N[C@H](CCCNC(=N)N)C(N)=O
In the case of B2, the “net fluorescence signal ratio (Cath E/Cath D) immediately after incubation” value in test [2] was 1.5 fold.

B3: substrate b, Mca-Gly-Pro-Ile-Leu-Phe**Phe-Arg-Leu-Gly-Lys(Dnp)-DArg-CONH2 (peptide)
peptide: Mca-GPILFFRLGK(Dnp)[dR]-NH2
SMILES: CC[C@H](C)[C@H](NC(=O)[C@@H]1CCCN1C(=O)CNC(=O)Cc1cc(=O)oc2cc(OC)ccc12)C(=O)N[C@@H](CC(C)C)C(=O)N[C@@H](Cc1ccccc1)C(=O)N[C@@H](Cc1ccccc1)C(=O)N[C@@H](CCCNC(=N)N)C(=O)N[C@@H](CC(C)C)C(=O)NCC(=O)N[C@@H](CCCCNc1ccc([N+](=O)[O-])cc1[N+](=O)[O-])C(=O)N[C@H](CCCNC(=N)N)C(N)=O
B3: the “net fluorescence signal ratio (Cath E/Cath D) immediately after incubation” value in test [2] came out at 1.6 fold.

B4: substrate d, Mca-Ala-Gly-Phe-Ser-Leu**Gly-Pro-Lys(Dnp)-DArg-CONH2 (peptide)
peptide: Mca-AGFSLGPK(Dnp)[dR]-NH2
SMILES: COc1ccc2c(CC(=O)N[C@@H](C)C(=O)NCC(=O)N[C@@H](Cc3ccccc3)C(=O)N[C@@H](CO)C(=O)N[C@@H](CC(C)C)C(=O)NCC(=O)N3CCC[C@H]3C(=O)N[C@@H](CCCCNc3ccc([N+](=O)[O-])cc3[N+](=O)[O-])C(=O)N[C@H](CCCNC(=N)N)C(N)=O)cc(=O)oc2c1
As for B4, in test [2], the “net fluorescence signal ratio (Cath E/Cath D) at 10 minutes” value came out at 4 fold, the “net fluorescence signal ratio (Cath E/Cath D) at 45 minutes” value turned out to be 2.3 fold and the “net fluorescence signal ratio (Cath E/Cath D) at the initial time point” value was 12 fold.

B5: substrate a, Mca-Gly-Ser-Pro-Ala-Phe**Leu-Ala-Lys(Dnp)-DArg-CONH2 (peptide)
peptide: Mca-GSPAFLAK(Dnp)[dR]-NH2
SMILES: COc1ccc2c(CC(=O)NCC(=O)N[C@@H](CO)C(=O)N3CCC[C@H]3C(=O)N[C@@H](C)C(=O)N[C@@H](Cc3ccccc3)C(=O)N[C@@H](CC(C)C)C(=O)N[C@@H](C)C(=O)N[C@@H](CCCCNc3ccc([N+](=O)[O-])cc3[N+](=O)[O-])C(=O)N[C@H](CCCNC(=N)N)C(N)=O)cc(=O)oc2c1
For the molecule B5, in test [2], the “net fluorescence signal ratio (Cath E/Cath D) at 10 minutes” value was 4.5 fold, the “net fluorescence signal ratio (Cath E/Cath D) at 45 minutes” value came out at 1.6 fold and the “net fluorescence signal ratio (Cath E/Cath D) at the initial time point” value is 17.9 fold.
